This note sets out measurements from paper PMC2002144.

This assay addresses epidermal growth factor receptor (EGFr) (human (endogenous in human breast tumours)) (UniProt P00533). Briefly: radioligand binding; labelled EGF on membrane protein of human breast tumours; multipoint Scatchard analyses and 2 point assays; saturation assay with 1 nM labelled EGF, 100 ug membrane protein, 100 nM unlabelled EGF for non-specific binding, volume 400 ul with buffer; constant of the high affinity site (2 binding sites found).

On to “epidermal growth factor (EGF), labelled (from UniProt P01132 977-1029) (ligand)”, for which the KD, high affinity site is 0.3 to 0.6 nM.
